Assay [1] concerns the target T1, human TL1A (human, UniProt O95150 72-251).
T1 construct: Antigen in SPR and ELISA; Also used here for places that print only 'TL1A' and for endogenous TL1A in human whole blood; also called TNFSF15
T1 sequence (looked up): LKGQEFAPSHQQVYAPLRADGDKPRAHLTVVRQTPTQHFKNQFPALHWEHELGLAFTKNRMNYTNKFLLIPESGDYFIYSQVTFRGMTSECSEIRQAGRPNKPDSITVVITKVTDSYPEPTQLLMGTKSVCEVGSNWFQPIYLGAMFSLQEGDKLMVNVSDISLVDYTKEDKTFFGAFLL
In words: SPR, Fab format, average.

A further assay deals with T2, Cyno TL1A (cyno, UniProt G7PRK8 72-251).
T2 sequence: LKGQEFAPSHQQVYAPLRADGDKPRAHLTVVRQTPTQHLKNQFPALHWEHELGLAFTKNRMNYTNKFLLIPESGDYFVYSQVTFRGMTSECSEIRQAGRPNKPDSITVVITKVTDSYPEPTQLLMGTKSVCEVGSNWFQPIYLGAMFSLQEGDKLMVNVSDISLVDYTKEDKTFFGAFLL
In words: SPR, Fab format, average.

For assay [2], the target named is T1, human TL1A. In words: SPR, Fab lysate, average.
Assay [3] concerns the target T1, human TL1A. In words: SPR, Fab format.

B1: Antibody 5 (Fab format) (Fab, V domains shown)
VH: QVQLQESGPGLVRPSQTLSLTCTVSGFDMQDTYMHWVRQRPGRGLEWMGRIEPASGHTKYNPSLKSRVTITRDTSKNQVSLRLSSVTAADTAVYYCVRSGGLPDVWGQGSLVTVSS
VL: DIQMTQSPSSLSASVGDRVTITCRASQGVMYMYWYQQKPGKAPKLLIYGASNLASGVPSRFSGSGSGTDFTFTISSLQPEDIATYYCQQWEGNPRTFGQGTKVEIK
notes: High priority lead, Fab format
As to B1, the Kd came to 0.33 nM with human TL1A [1], 0.79 nM with Cyno TL1A and 0.33 nM with human TL1A [2].

B2: Antibody 8 (Fab format) (Fab, V domains shown)
VH: QVQLQESGPGLVRPSQTLSLTCTVSGFDMQSTYMHWVRQRPGRGLEWMGRIEPAGGHTKYNPSLKSRVTITRDTSKNQVSLRLSSVTAADTAVYYCVRSGGLPDVWGQGSLVTVSS
VL: DIQMTQSPSSLSASVGDRVTITCRASSSVSYMYWYQQKPGKAPKLLIYGASNLASGVPSRFSGSGSGTDFTFTISSLQPEDIATYYCQQWEGNPRTFGQGTKVEIK
notes: as for B1
B2: the Kd with human TL1A [1] was 0.38 nM; in the assay with Cyno TL1A it was 3.26 nM; with human TL1A [2] it was 0.38 nM.

B3: Antibody 6 (Fab format) (Fab, V domains shown)
VH: QVQLQESGPGLVRPSQTLSLTCTVSGFDMADTYMHWVRQRPGRGLEWMGRIEPAGGHTKYNPSLKSRVTITRDTSKNQVSLRLSSVTAADTAVYYCVRSGGLPDMWGQGSLVTVSS
VL: DIQMTQSPSSLSASVGDRVTITCRASQGVEYMYWYQQKPGKAPKLLIYSASNLASGVPSRFSGSGSGTDFTFTISSLQPEDIATYYCQQWEGNPRTFGQGTKVEIK
notes: as for B1
On to B3, for which the Kd with human TL1A [1] was found to be 0.41 nM; with Cyno TL1A, 0.26 nM; with human TL1A [2], 0.41 nM.

B4: Antibody 7 (Fab format) (Fab, V domains shown)
VH: QVQLQESGPGLVRPSQTLSLTCTVSGFDMGDTYMHWVRQRPGRGLEWMGRIEPAAGHTKYNPSLKSRVTITRDTSKNQVSLRLSSVTAADTAVYYCVRSGGLPDIWGQGSLVTVSS
VL: DIQMTQSPSSLSASVGDRVTITCRASQGVEYMYWYQQKPGKAPKLLIYGASNLASGVPSRFSGSGSGTDFTFTISSLQPEDIATYYCQQWEGNPRTFGQGTKVEIK
notes: as for B1
As for B4, the figures for the Kd with human TL1A [1], with Cyno TL1A and in the assay with human TL1A [2] were 0.43 nM, 1.63 nM and 0.43 nM, respectively.

B5: Antibody 10 (Fab format) (Fab, V domains shown)
VH: QVQLQESGPGLVRPSQTLSLTCTVSGLDPDDTYMHWVRQRPGRGLEWMGRIEPAGGHTKYNPSLKSRVTITRDTSKNQVSLRLSSVTAADTAVYYCVISGGLPDVWGQGSLVTVSS
VL: DIQMTQSPSSLSASVGDRVTITCRASQGVEYMYWYQQKPGKAPKLLIYGASNLASGVPSRFSGSGSGTDFTFTISSLQPEDIATYYCQQWEGNPRTFGQGTKVEIK
notes: as for B1
Regarding B5, the Kd with human TL1A [3] was less than 1 nM; in the assay with human TL1A [1] it was 0.48 nM; with Cyno TL1A, 1.83 nM; with human TL1A [2], 0.48 nM.

B6: Antibody 9 (Fab format) (Fab, V domains shown)
VH: QVQLQESGPGLVRPSQTLSLTCTVSGFDIQDTYMHWVRQRPGRGLEWMGRIEPAGGHTKYNPSLKSRVTITRDTSKNQVSLRLSSVTAADTAVYYCVRSGGLPDAWGQGSLVTVSS
VL: DIQMTQSPSSLSASVGDRVTITCRASQGVGYMYWYQQKPGKAPKLLIYSASNLASGVPSRFSGSGSGTDFTFTISSLQPEDIATYYCQQWEGNPRTFGQGTKVEIK
notes: as for B1
Take B6: the Kd is less than 1 nM with human TL1A [3], 0.43 nM with human TL1A [1], 1.99 nM with Cyno TL1A and 0.43 nM in the assay with human TL1A [2].

B7: Antibody 11 (Fab format) (Fab, V domains shown)
VH: QVQLQESGPGLVRPSQTLSLTCTVSGFDMGDTYMHWVRQRPGRGLEWMGRIEPAGGHTKYNPSLKSRVTITRDTSKNQVSLRLSSVTAADTAVYYCVRSGGMPDVWGQGSLVTVSS
VL: DIQMTQSPSSLSASVGDRVTITCRASQGVEYMYWYQQKPGKAPKLLIYSASNLASGVPSRFSGSGSGTDFTFTISSLQPEDIATYYCQQWEGNPRTFGQGTKVEIK
notes: as for B1
Regarding B7, the Kd with human TL1A [3] is less than 1 nM; in the assay with human TL1A [1], 0.48 nM; with Cyno TL1A it was 0.38 nM; in the assay with human TL1A [2], 0.48 nM.

(Values after patent US20250109209A1 (ABSCI, published 2025).)
